# Results reported in article PMC5501646.
# Columns and labels:
# [1] = tested on: HfqPae (wild type) (Pseudomonas aeruginosa PAO1); assay: MST; conditions: 1 mM Mg2+, 25 C, MST: 10 mM Tris pH 8.0, 40 mM NaCl, 10 mM KCl, 1 mM MgCl2, 0.05% Tween, EMSA: 10 mM Tris-HCl pH 8.0, 10 mM MgCl2, 60 mM NaCl, 10 mM NaH2PO4, 10 mM DTT …
# [2] = molecular target: HfqPae (wild type) (Pseudomonas aeruginosa PAO1) (UniProt Q9HUM0); assay: EMSA; conditions: MST: 10 mM Tris pH 8.0, 40 mM NaCl, 10 mM KCl, 1 mM MgCl2, 0.05% Tween, 25 C; EMSA: 10 mM Tris-HCl pH 8.0, 10 mM MgCl2, 60 mM NaCl, 10 mM NaH2PO4, 10 mM DTT …
# [3] = molecular target: HfqPae (wild type) (Pseudomonas aeruginosa PAO1) (UniProt Q9HUM0); assay: MST; conditions: MST: 10 mM Tris pH 8.0, 40 mM NaCl, 10 mM KCl, 1 mM MgCl2, 0.05% Tween, 25 C; EMSA: 10 mM Tris-HCl pH 8.0, 10 mM MgCl2, 60 mM NaCl, 10 mM NaH2PO4, 10 mM DTT …
# [4] = molecular target: HfqPaeY25DFlag Y25D (Pseudomonas aeruginosa PAO1) (UniProt Q9HUM0); assay: EMSA; conditions: MST: 10 mM Tris pH 8.0, 40 mM NaCl, 10 mM KCl, 1 mM MgCl2, 0.05% Tween, 25 C; EMSA: 10 mM Tris-HCl pH 8.0, 10 mM MgCl2, 60 mM NaCl, 10 mM NaH2PO4, 10 mM DTT …
substance,measurement,setting,value
CrcZ RNA,Kd,[1]; 30 nM labelled Hfq,7.4 nM
GGACUGGUCGCGAGGCCAGCAGGUAAGCUGAGAGACCAAGCAGUCGGACUCUUCAGAUUAUCUCCUCAUCAGGCUAAUCACGGUUUCGACCCGGCACUUUGCCGGGUCUUUUUUUG [PrrF2 sRNA],binding,[2],binds
GGGAGCCGGCCUUGCGCCGGCAUAUGCCUUGCAUUUUGCUGAAAACAGAGCGCCAGCAGAGCGCACCCCCAGCCUUGCCGUGUCGAGUGCCGAACCAUGAUGAGGACCCAUCCCGUCGCCGAUCGUGGCGAUCUCCAUGCCGACCACCUGGACCUGGCCGCCG [antR(-95-+67) mRNA fragment],Kd,[3],37.3 nM
same,binding,[4],no binding
antR(-95-+67) mRNA fragment,Kd,[1]; 20 nM labelled Hfq,37.3 nM
